Results from paper PMC3477848 (Biochemistry, 2012).
Read-outs that look alike come from different tables or passages of the source.

Assays:
Experiment in all cases: fluorescence anisotropy
[1] = molecular target: T1, Dpo4 (SsoDpo4, Y-family DNA polymerase) (Sulfolobus solfataricus, UniProt Q97W02 1-352)
T1 sequence: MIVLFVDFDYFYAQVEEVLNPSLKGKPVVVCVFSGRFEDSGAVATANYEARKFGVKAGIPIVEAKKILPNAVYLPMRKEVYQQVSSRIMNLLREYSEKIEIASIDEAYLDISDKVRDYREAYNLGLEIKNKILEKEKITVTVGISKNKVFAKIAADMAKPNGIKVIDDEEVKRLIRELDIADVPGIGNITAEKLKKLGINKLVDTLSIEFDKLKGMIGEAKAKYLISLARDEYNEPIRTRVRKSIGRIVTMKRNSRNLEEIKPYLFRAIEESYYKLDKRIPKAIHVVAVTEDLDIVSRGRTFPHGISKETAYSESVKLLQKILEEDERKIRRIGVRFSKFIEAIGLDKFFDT

[2] = molecular target: T2, Dpo1 exo- (SsoDpo1, B-family DNA polymerase) (Sulfolobus solfataricus, UniProt P26811 1-882, D231A;D318A)
T2 sequence: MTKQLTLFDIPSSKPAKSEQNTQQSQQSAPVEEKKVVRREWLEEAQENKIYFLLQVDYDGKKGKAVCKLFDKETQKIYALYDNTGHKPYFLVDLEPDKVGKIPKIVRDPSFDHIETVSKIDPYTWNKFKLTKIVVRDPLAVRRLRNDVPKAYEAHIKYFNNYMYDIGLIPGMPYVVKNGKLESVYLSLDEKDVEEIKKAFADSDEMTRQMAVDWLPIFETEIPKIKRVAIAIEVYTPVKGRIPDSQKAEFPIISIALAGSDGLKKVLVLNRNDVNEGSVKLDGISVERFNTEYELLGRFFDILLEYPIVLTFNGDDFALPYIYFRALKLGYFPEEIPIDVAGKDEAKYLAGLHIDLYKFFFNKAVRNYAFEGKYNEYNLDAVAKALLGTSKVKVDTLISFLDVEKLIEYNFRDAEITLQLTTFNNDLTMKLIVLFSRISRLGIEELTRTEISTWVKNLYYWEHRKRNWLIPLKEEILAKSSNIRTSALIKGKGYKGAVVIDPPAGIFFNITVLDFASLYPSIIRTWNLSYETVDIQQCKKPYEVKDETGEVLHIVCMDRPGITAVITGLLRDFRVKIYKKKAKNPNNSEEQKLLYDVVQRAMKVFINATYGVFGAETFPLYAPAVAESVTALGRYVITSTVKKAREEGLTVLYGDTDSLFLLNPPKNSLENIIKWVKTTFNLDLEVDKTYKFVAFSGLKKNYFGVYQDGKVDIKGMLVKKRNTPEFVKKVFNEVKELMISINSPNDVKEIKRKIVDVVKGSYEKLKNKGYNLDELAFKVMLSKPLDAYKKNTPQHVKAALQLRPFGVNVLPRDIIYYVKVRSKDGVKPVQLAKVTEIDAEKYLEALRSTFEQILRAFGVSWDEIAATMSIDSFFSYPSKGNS

[3] = molecular target: T1, Dpo4 (SsoDpo4, Y-family DNA polymerase); remark: listed apart in the source
[4] = molecular target: T1, Dpo4 (SsoDpo4, Y-family DNA polymerase); remark: listed apart in the source
[5] = molecular target: T2, Dpo1 exo- (SsoDpo1, B-family DNA …); remark: listed apart in the source
[6] = molecular target: T1, Dpo4 (SsoDpo4, Y-family DNA polymerase); remark: listed apart in the source
[7] = molecular target: T2, Dpo1 exo- (SsoDpo1, B-family DNA …); remark: listed apart in the source
[8] = molecular target: T2, Dpo1 exo- (SsoDpo1, B-family DNA …); remark: listed apart in the source

## TTTTTTTTTTCCCGGGCCGGCGTTTCGCCGGCCCGGG (structured_DNA) [37-nt hairpin primer-template, 5'-Cy3]
[1]
  Kd: 164 ± 9 nM
[2]
  Kd: 109 ± 16 nM
[3]
  Kd: 674 ± 80 nM
[4]
  Kd: 176 ± 10 nM
[5]
  Kd: 113 ± 32 nM
[6]
  Kd: 444 ± 115 nM
[7]
  Kd: 208 ± 22 nM
[8]
  Kd: 144 ± 3 nM
